These results are taken from patent US20240400703A1 (Genmab, published 2024).

In this assay the target is T1, mouse OX40 expressed on ExpiCHO-S cells (mouse, UniProt P47741 20-272).
T1 construct: full-length entry; also called OX40mm; wild-type mouse OX40
T1 sequence: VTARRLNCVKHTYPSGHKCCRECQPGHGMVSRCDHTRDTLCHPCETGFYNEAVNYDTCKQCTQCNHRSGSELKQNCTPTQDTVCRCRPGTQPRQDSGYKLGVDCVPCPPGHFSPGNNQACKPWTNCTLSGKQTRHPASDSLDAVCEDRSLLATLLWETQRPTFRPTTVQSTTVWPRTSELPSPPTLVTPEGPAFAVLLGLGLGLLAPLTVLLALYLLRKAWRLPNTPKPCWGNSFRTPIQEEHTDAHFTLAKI
Kind of assay: not described (data not shown).

B1: IgG1-CD134-003-FEAL (antibody)
heavy: EQLKETGGGLVQPGGSLTLSCKASGFDFSSGYMSWVRQAPGKGLEWIGYIDPVFGSTYYASWVNGRFAISSHNAQNTLYLQLNSLTAADTATYFCARDLRAFYSGWGGINLWGPGTLVTVSSASTKGPSVFPLAPSSKSTSGGTAALGCLVKDYFPEPVTVSWNSGALTSGVHTFPAVLQSSGLYSLSSVVTVPSSSLGTQTYICNVNHKPSNTKVDKRVEPKSCDKTHTCPPCPAPEFEGGPSVFLFPPKPKDTLMISRTPEVTCVVVAVSHEDPEVKFNWYVDGVEVHNAKTKPREEQYNSTYRVVSVLTVLHQDWLNGKEYKCKVSNKALPAPIEKTISKAKGQPREPQVYTLPPSREEMTKNQVSLTCLVKGFYPSDIAVEWESNGQPENNYKTTPPVLDSDGSFLLYSKLTVDKSRWQQGNVFSCSVMHEALHNHYTQKSLSLSPG
light: AAVLTQTPSPVSAAVGGTVTIKCQSSQIVVNNNFLSWYQQKPGQPPKLLIYDASNLASGVPDRFSGSGSGTQFTLTISGVQSDDAATYYCLGGYDDDAENAFGGGTEVVVQRTVAAPSVFIFPPSDEQLKSGTASVVCLLNNFYPREAKVQWKVDNALQSGNSQESVTEQDSKDSTYSLSSTLTLSKADYEKHKVYACEVTHQGLSSPVTKSFNRGEC
notes: also called IgG1-CD134-003-L234F-L235E-D265A-F405L
Regarding B1, the binding result is given as “no binding”.
